Target: zipper-mEos3.2C (split site 164E)
Test: split reporter (BiFC, NanoBiT); BiFC signal of E. coli cultures read in a plate reader with 480 nm excitation at different culture durations, normalised to OD600; zippers against mutated zippers

complementation efficiency (intensity ratio of the specific BiFC signal by leucine zippers to the nonspecific signal via mutated leucine zippers): < 12
Substance: mEos3.2N-Zipper (split site 164E) (peptide)

From PMC4109008
